Broadly, the EC50 is the concentration that produces a half-maximal response.

Numbering of substitutions follows the chain as printed.

For the test, the target named is T1, CD300c抗原(11832-H08H、Sino Biological) (UniProt Q08708).
T1 sequence (looked up): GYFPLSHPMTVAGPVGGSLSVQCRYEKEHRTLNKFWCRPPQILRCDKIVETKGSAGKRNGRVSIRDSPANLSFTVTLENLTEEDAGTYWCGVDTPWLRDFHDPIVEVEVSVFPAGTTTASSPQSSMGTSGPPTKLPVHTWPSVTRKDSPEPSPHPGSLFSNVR
In words: binding ELISA, CD300c antigen coated at 8 ug/mL, HRP anti-Fc IgG.

B1: 抗-CD300cモノクローナル抗体 CK3 (antibody, from another filing, V domains shown)
VH: RVQLLESGGGLVQPGGSLRLSCAASGFTFSSYAISWVRQAPGKGLEWVSATSGSGRATYYADSVKGRFTISRDNSKNTLYLQMNSLRAEDTAVYYCARDTWWEGYFDLWGQGTLVTVSS
VL: EIVLTQSPGTLSLSPGERATLSCQASHISTHLNWYQQKPGQAPRLLIYGASSRATGIPDRFSGSGSGTDFTLTISRLEPEDFAVYYCQQYNTYPPTFGQGTKVEIK
Molecule B1 gave an EC50 greater than 0.2 µg/mL.

B2: 抗-CD300cモノクローナル抗体 SK15 (antibody, from another filing, V domains shown)
VH: RVQLLESGGGLVQPGGSLRLSCAASGFTFSSYAMHWVRQAPGKGLEWVSAINGSGGSTYYADSVKGRFTISRDNSKNTLYLQTNSLRAEDTAVYYCARGLQGFDYWGQGTLVTVSS
VL: EIVLTQSPGTLSLSPGERATLSCQASQDITNYLNWYQQKPGQAPRLLIYDASSLETGIPDRFSGSGSGTDFTLTISRLEPEDFAVYYCQQSYSTPITFGQGTKVEIK
With B2, the EC50 is greater than 0.2 µg/mL.

B3: 抗-CD300cモノクローナル抗体 SK16 (antibody, from another filing, V domains shown)
VH: B2 VH with H35S, Y59L, T83M, L100V, Q101S, Y105S
VL: B2 VL with Q24R, A25I, D28S, T30S, N31S, S53L, L54R, E55A, S93K
Molecule B3 showed an EC50 greater than 0.2 µg/mL.

These data come from patent publication JP2024517985A.
